# What was measured:
# Test in all cases: cell-based or functional assay
# [1] = molecular target: Env of HIV isolate 00836-2.5 (clade C) (HIV)
# [2] = molecular target: Env of HIV isolate 25925-2.22 (clade C) (HIV)
# [3] = molecular target: Env of HIV isolate 271-11 (clade AG) (HIV)
# [4] = molecular target: Env of HIV isolate 3637.v5.c3 (clade C) (HIV)
# [5] = molecular target: Env of HIV isolate 6631.v3.c10 (clade C) (HIV)
# [6] = molecular target: Env of HIV isolate CH119.10 (clade BC) (HIV)
# [7] = molecular target: Env of HIV isolate CNE4 (clade B) (HIV)
# [8] = molecular target: Env of HIV isolate CNE40 (clade BC) (HIV)
# [9] = molecular target: Env of HIV isolate DU156.12 (clade C) (HIV)
# [10] = molecular target: Env of HIV isolate DU422.01 (clade C) (HIV)
# [11] = molecular target: Env of HIV isolate JRFL.JB (clade B) (HIV)
# [12] = molecular target: Env of HIV isolate KER2018.11 (clade A) (HIV)
# [13] = molecular target: Env of HIV isolate Q461.e2 (clade AD) (HIV)
# [14] = molecular target: Env of HIV isolate SF162.LS (clade B) (HIV)
# [15] = molecular target: Env of HIV isolate THRO.18 (clade B) (HIV)
# [16] = molecular target: Env of HIV isolate TZA125.17 (clade C) (HIV)
# [17] = molecular target: Env of HIV isolate UG037.8 (clade A) (HIV)
# [18] = molecular target: Env of HIV isolate ZM109.4 (clade C) (HIV)
# [19] = molecular target: Env of HIV isolate ZM233.6 (clade C) (HIV)
# [20] = molecular target: Env of HIV isolate ZM53.12 (clade C) (HIV)
# [21] = molecular target: Envelope protein of SVA.MLV (clade NA)
# [22] = molecular target: HIV Env of isolate 0260.v5.c36 (HIV)
# [23] = molecular target: HIV Env of isolate 0815.v3.c3 (HIV)
# [24] = molecular target: HIV Env of isolate 57128.vrc15 (HIV)
# [25] = molecular target: HIV Env of isolate 6405.v4.c34 (HIV)
# [26] = molecular target: HIV Env of isolate 6545.v4.c1 (HIV)
# [27] = molecular target: HIV Env of isolate BB201.B42 (HIV)
# [28] = molecular target: HIV Env of isolate BG1168.01 (HIV)
# [29] = molecular target: HIV Env of isolate BL01.DG (HIV)
# [30] = molecular target: HIV Env of isolate C3347.c11 (HIV)
# [31] = molecular target: HIV Env of isolate CAP244.D3 (HIV)
# [32] = molecular target: HIV Env of isolate CH119.10 (HIV)
# [33] = molecular target: HIV Env of isolate CNE30 (HIV)
# [34] = molecular target: HIV Env of isolate DJ263.8 (HIV)
# [35] = molecular target: HIV Env of isolate HO86.8 (HIV)
# [36] = molecular target: HIV Env of isolate KER2018.11 (HIV)
# [37] = molecular target: HIV Env of isolate Q259.17 (HIV)
# [38] = molecular target: HIV Env of isolate REJO.67 (HIV)
# [39] = molecular target: HIV Env of isolate RW020.2 (HIV)
# [40] = molecular target: HIV Env of isolate TH976.17 (HIV)
# [41] = molecular target: HIV Env of isolate ZM197.7 (HIV)
# [42] = molecular target: HIV Env of isolate ZM249.1 (HIV)
substance,measurement,setting,value
PGT121 (antibody),"IC50, pseudovirus neutralization",[1],> 50 µg/mL
same,"IC50, pseudovirus neutralization",[2],0.045 µg/mL
same,"IC50, pseudovirus neutralization",[3],> 50 µg/mL
same,"IC50, pseudovirus neutralization",[4],> 50 µg/mL
same,"IC50, pseudovirus neutralization",[5],> 50 µg/mL
same,"IC50, pseudovirus neutralization",[6],0.0313 µg/mL
same,"IC50, pseudovirus neutralization",[7],1.9 µg/mL
same,"IC50, pseudovirus neutralization",[8],0.281 µg/mL
same,"IC50, pseudovirus neutralization",[9],0.0147 µg/mL
same,"IC50, pseudovirus neutralization",[10],0.062 µg/mL
same,"IC50, pseudovirus neutralization",[11],0.0397 µg/mL
same,"IC50, pseudovirus neutralization",[12],> 50 µg/mL
same,"IC50, pseudovirus neutralization",[13],> 50 µg/mL
same,"IC50, pseudovirus neutralization",[14],0.00733 µg/mL
same,"IC50, pseudovirus neutralization",[15],> 50 µg/mL
same,"IC50, pseudovirus neutralization",[16],1.45 µg/mL
same,"IC50, pseudovirus neutralization",[17],0.092 µg/mL
same,"IC50, pseudovirus neutralization",[18],1.96 µg/mL
same,"IC50, pseudovirus neutralization",[19],0.731 µg/mL
same,"IC50, pseudovirus neutralization",[20],0.00267 µg/mL
same,"IC50, pseudovirus neutralization",[21],> 50 µg/mL
same,IC80,[22],0.159 µg/mL
same,IC80,[23],0.112 µg/mL
same,"IC80, pseudovirus neutralization",[24],> 50 µg/mL
same,"IC80, pseudovirus neutralization",[25],0.136 µg/mL
same,IC80,[26],> 50 µg/mL
same,IC80,[27],0.0243 µg/mL
same,IC80,[28],> 50 µg/mL
same,IC80,[29],> 50 µg/mL
same,IC80,[30],> 50 µg/mL
same,"IC80, pseudovirus neutralization",[31],> 50 µg/mL
same,"IC80, pseudovirus neutralization",[32],0.0937 µg/mL
same,"IC80, pseudovirus neutralization",[33],0.296 µg/mL
same,IC80,[34],0.202 µg/mL
same,IC80,[35],> 50 µg/mL
same,IC80,[36],> 50 µg/mL
same,IC80,[37],> 50 µg/mL
same,IC80,[38],> 50 µg/mL
same,IC80,[39],0.0177 µg/mL
same,IC80,[40],> 50 µg/mL
same,"IC80, pseudovirus neutralization",[41],> 50 µg/mL
same,"IC80, pseudovirus neutralization",[42],> 50 µg/mL

# — patent US20210292396A1
